Experimental findings from the DeepSol protein solubility set are described below.

This data set can be described thus: soluble on expression in E. coli; label from the status in PepcDB or PDB records.
Take “MADDLGLDLGKKKKSKKVIKIDGDDAPVETGVEAVEDGLGELNLGAKKKKKTPKTAGEEVVEEKVPTLEIGIGAQNLIDAKGAWPDYTYEEALTLVYQVMKDKNPDFAGDKKKFAIKLPEVARAGSKKTAFSNFLEICRLMKRQDKHVLQFLLAELGTTGSIDGSNCLIVKGRWQQKQFESVLRKYIKEYVMCHTCKSPETQLTKDTRLFFLQCTNCGSRCSVTAIKSGFKAVVGKRAAIRRAEEATAGK”: the “soluble on expression in E. coli” value is given as “not soluble”.
Under “MADGQVAELLLRRLEASDGGLDSAELAAELGMEHQAVVGAVKSLQALGEVIEAELRSTKHWELTAEGEEIAREGSHEARVFRSIPPEGLAQSELMRLPSGKVGFSKAMSNKWIRVDKSAADGPRVFRVVDSMEDEVQRRLQLVRGGQAEKLGEKERSELRKRKLLAEVTLKTYWVSKGSAFSTSISKQETELSPEMISSGSWRDRPFKPYNFLAHGVLPDSGHLHPLLKVRSQFRQIFLEMGFTEMPTDNFIESSFWNFDALFQPQQHPARDQHDTFFLRDPAEALQLPMDYVQRVKRTHSQGGYGSQGYKYNWKLDEARKNLLRTHTTSASARALYRLAQKKPFTPVKYFSIDRVFRNETLDATHLAEFHQIEGVVADHGLTLGHLMGVLREFFTKLGITQLRFKPAYNPYTEPSMEVFSYHQGLKKWVEVGNSGVFRPEMLLPMGLPENVSVIAWGLSLERPTMIKYGINNIRELVGHKVNLQMVYDSPLCRLDAEPRPPPTQEAA” stands “soluble”.
Under “MADGVLAVSQEGFNTLQSYNVGEKYTADLWIQQGGLKSTASVVSFSVDKALLDSMNIADGTSYELLPADCYQLTKSSVDIPANERLLKGELTYDPAKIQELSGYDHLKYVLPLRATSSGMPFVSGRSVLLLGFKVSEPIVTIMNAGVEEINLAEVKELPVQIGVPFTNKWEISCRLESRQSVIDAYNTAHGTYFSMLPSDAYVTPETPILHSGVNQVTATYKLKDDILPGNYMLPVQIAEVTSDATIRADKDVYAAYSIIKEGDKLSKTDWKIVSFTTEEASGEGSNNGHAKHLIDGNIETFWHSRWQGGSDPLPYEIIIDMNHRVKIAQIELLPRGRGSNNPIKVVRFEASEDGTNWESIGQFGFTNQDAALKYYVKSSTARYIKLVIPDGVGNGTVAAIRELDVRGTVVNLEHHHHHH” stands “soluble”.
Under “MADKLAFTTADLVTCLICIREFDTKTRKPKVLHCGHTVCEECTDNLRDFNAPLLVVRCPTCRQFTKRPVAESCNTNFQLMGYLAEKEKFEREKKAKGGKPKKPDQVLTLKMARSNRMEIHVASKKDLEGPELYLRKDSEGNTHIVVAGLTGSPAEVMKFITENGISIETGVLMPQVVYDEGRTRGGTEKFAKVNSMAAGQSAIKCTKPPVKLEELEFHKTFELKVSEESGSLKMELVQKEEVPKNGFGVFEGCMTKPSAKRLKEFTDSCPGTSAEDEVQVIEPEPLPKRRRTRK” stands “not soluble”; under “MADSSSFFSSAFSSAKNLIPFAKNTEDKPVDADTASDAKDAKDSAIQEAVQNASAAINDVFTDAVDKLEEVKDTVVEQFSNGDEKKEEAVVEEKFDSVHVGVDGETAVQEAKEEVKEAQVVVKGVLADGTQIVEGVTDVAEAPVADEKKEETVAAPLDSAAPVEEHKEESHSSEHTEAPAHTEDSIVQADPEARIVFQGVLADGTQIIEAVSANPPCIQEESAPAAAVSEEVGEAVHVVPVDQAPEAPTSEAQDAAPIEEHVEVVHVAENASTPAATDAHEETKSAEEQTPVVDASPAQEIVKVEEHEHKEEAAPDESAPEAAHDSHVEETAAQVVDEVIEAVHVSANESAPEEHKEEVAAAATSEDQKEPAPASDEHTSESAVEGAIESVHIALTESAPVASDENTTEAAPGTVEEHKNEVHDPVDGASSDAPAEDHREAAASSESVEEPITAVHVEATESAAPADKVHEETKIDSAAETHADAPVVDASPAEDQASEVTEAPHVESAKSAPATSEDHKEDVAQATSEQVETQAPADEHKDDASPAEPTTVQDVIEAIPIVSTESTPAEHSAPAESAPALAEEHKDEAAPSEPVQDVPVEEVIEAVHIAPAESAPASVEEAAPSESTQAPVEEHKDATTAADSSHEEPKAESDAPAAESVETAPVEEHKDEASPTALESVEDVIEAVHVASTESAPAPVEDAASADSTQAPVEEQKDTAAAAEPSHEEAQADHAASVEDVIEAVHIASNESAPTTEAAPSESIQAEDHKDEAASTAEPAHEESVTVVEASHKEPQAESAAPVEENIESVHVASEESAPAPSGDAAPSESAPVSENPVEEVAVAYHVESIESVPTDAQSVEEPVVQQHVGTVEAAPEAAVDEESFDVVHVHSDAAHPETATPESGSEETFEKVEHSQVQEAPSSEEHNSSEPEIVEDVVEKQIVAAVASAPETQPEESPKKPRKLAEMAHESAFPVPYRSKLVEPFEPGQTLIVKGKTGEDSIRFTVNLHTNTADFSGNDVPLHVSVRFDEGKLVFNTFSKGEWGKEERKSNPYKKGDDIDIRIRAHDSKFQIFVDQKEVKEYEHRVPLSSITHFTIDGDVLVNYIHWGGKYYPVPYESGLAGEGLAPGKTLTVFGIPEKKAKRFHINLLKKNGDIALHLNARFDEKHVVRNSLINSAWGNEEREGKMPFEKAVGFDLEIHNEPYAFAVTVNGERFASYAHRLSPDEVNGLQIGGDVEITGIQLA”, “not soluble”.
On to “MADSSSSSFFPDFGLLLYLEELNKEELNTFKLFLKETMEPEHGLTPWNEVKKARREDLANLMKKYYPGEKAWSVSLKIFGKMNLKDLCERAKEEINWSAQTIGPDDAKAGETQEDQEAVLGDGTEYRNRIKEKFCITWDKKSLAGKPEDFHHGIAEKDRKLLEHLFDVDVKTGAQPQIVVLQGAAGVGKTTLVRKAMLDWAEGSLYQQRFKYVFYLNGREINQLKERSFAQLISKDWPSTEGPIEEIMYQPSSLLFIIDSFDELNFAFEEPEFALCEDWTQEHPVSFLMSSLLRKVMLPEASLLVTTRLTTSKRLKQLLKNHHYVELLGMSEDAREEYIYQFFEDKRWAMKVFSSLKSNEMLFSMCQVPLVCWAACTCLKQQMEKGGDVTLTCQTTTALFTCYISSLFTPVDGGSPSLPNQAQLRRLCQVAAKGIWTMTYVFYRENLRRLGLTQSDVSSFMDSNIIQKDAEYENCYVFTHLHVQEFFAAMFYMLKGSWEAGNPSCQPFEDLKSLLQSTSYKDPHLTQMKCFLFGLLNEDRVKQLERTFNCKMSLKIKSKLLQCMEVLGNSDYSPSQLGFLELFHCLYETQDKAFISQAMRCFPKVAINICEKIHLLVSSFCLKHCRCLRTIRLSVTVVFEKKILKTSLPTNTWLKFITFPDGCQDISTSLIHNKNLMHLDLKGSDIGDNGVKSLCEALKHPECKLQTLRLESCNLTVFCCLNISNALIRSQSLIFLNLSTNNLLDDGVQLLCEALRHPKCYLERLSLESCGLTEAGCEYLSLALISNKRLTHLCLADNVLGDGGVKLMSDALQHAQCTLKSLVLRRCHFTSLSSEYLSTSLLHNKSLTHLDLGSNWLQDNGVKLLCDVFRHPSCNLQDLELMGCVLTNACCLDLASVILNNPNLRSLDLGNNDLQDDGVKILCDALRYPNCNIQRLGLEYCGLTSLCCQDLSSALICNKRLIKMNLTQNTLGYEGIVKLYKVLKSPKCKLQVLGQQDFQAAQGKLQQRRPLKPLRPGQVNRKLKTEKETQNCRLSRRRIGPLETADQSQAAGARPAAGLRLRFRGLGD”, for which the “soluble on expression in E. coli” value is given as “soluble”.
For “MADSTATSTPRAVPSHEDRPVYVIGGGPGGLAAAHALRAQGVRAVVLEKSDRVGASWRRHYDRLHLHTTRRLSALPGLPMPRSFGRWVSRDNVVRYLEKYVEHHQLEIVTGVEVSRVEPAPDGTGWLLHATGGRELTGSAVVVATGHNHTPHLPDWPGRDAYTGELLHAGDYRNATPHAGRDVLVVGVGNTGAEIAVDLVEGGASRVRLAVRTAPHIVRRSTAGWAAQFTGIVVRRLPVRLVDLLAGPMARLSVPDLSAQGLPRPDTGLYSRVREGSIPVQDVGLIDAVRKGRVEIVAAVDGFEDGKVVLADGNRIGPDVVIAATGYARALEDLVGHLDVLDGRGRPTVHGARTPRTAPGLYFTGFTNPISGMFRELAIDAEKIAKAVAKALARTTARTPALEHHHHHH”, the “soluble on expression in E. coli” value is “soluble”.
Under “MADVADPEVESRPQRFPKNIMITGANRGIGFGLVKHFLEYDGIELLIATCRNPEKADELNALKNDRRLHVIALNVDDDESIKKVFDEVSSLVSSNGLNMLINNAGILLPYEVDGPKICRKTMMKQLETNSVSVAILTQIFLPLIKTAASAAEGDEASIDRASIINISSTMASIEMNNGCFDGPMTAYRMSKSALNAFARQSFMELSKYHILVTSFCPGWVRTDMGGDNADLDVNESTKTLSANILRLDNRNNGLYFDRFLHPIPN” stands “not soluble”; under “MADVDELEDPMEEMTSYTFARFLRSPETEAFVRNLDRPPQMPAMRFVYLYCLCKQIQEFSGETGFCDFVSSLVQENDSKDGPSLKSIYWGLQEATDEQRTVLCSYVESMTRGQSENLMWDILRNGIISSSKLLSTIKNGPTKVFEPAPISTNHYFGGPVAFGLRCEDTVKDIVCKLICGDASANRQFGFMISPTDGIFGVSLDLCVNVESQGDFILFTDRSCIYEIKCRFKYLFSKSEFDPIYPSYTALYKRPCKRSFIRFINSIARPTVEYVPDGRLPSEGDYLLTQDEAWNLKDVRKRKLGPGHDLVADSLAANRGVESMLYVMTDPSENAGRIGIKDRVPVNIFINPRHNYFYQVLLQYKIVGDYVRHSGGGKPGRDCSPRVNIVTAFFRKRSPLDPATCTLGSDLLLDASVEIPVAVLVTPVVLPDSVIRKTLSTAAGSWKAYADNTFDTAPWVPSGLFADDESTP”, “soluble”.
Under “MADYDLAIIGGGLNGVSLARDAAGRGLRVILFEQGDLGGAASSATPRLIHGDLSVLERRGFWRVRRALAERRIWLRIAPHLVRPMRFVIPAHSEERPPWLLRAGLYVYDGLTNRGGLPPSATLDITHHPVGNALKRPFGTAFEYSDCVVDDSRLVVLTALDAAERGAAIHTGARCVRADRTDTWRLAVVDRGHRRTITARALANATGGWTSMVADTVLREPQPAMAAMQMSQIIVPRLFDSENVYVFQNNDGRLIFARPLERDFTLIGTVTHAFTGDPAIVAMPGADVSYLCEAASRYFRERVAPTDVVRTVSGVNLTLASARGRDGTALFHARRRKAPLITMFGGDVTTSRLRAERAVTRLTPFYPMSPPWTDGAVLPGGDFAWDRFDTEVDLARDRWRFLSEPEAQRLVAAYGSRLPAVLGEARTRDELGPTFGPELTGAEVRYLMSHEWARFPEDVLWRRSKLGLTMPKADRDGLAAFMADVNDRPEPVEQRPIGRLEHHHHHH” stands “not soluble”; under “MADYIYIDNSNLYIEGRRVSAVQQRLATNINEAMRDGILDHGYTISFGKLHEFLTGGDLTKIKRAALYGSRPPPNDSIWKSAERAGFELHLEDRNVANKEKKIDTGIATLLTKDAYKHGKPEEDLFVLVAGDKDYVPTLNELRADGYQVEVVFWSHAAKELKDAATRFISLDQHLEHLRF”, “soluble”; under “MAEARSQPSAGPQLNALPDHSPLLQPGLAALRRRAREAGVPLAPLPLTDSFLLRFLRARDFDLDLAWRLLKNYYKWRAECPEISADLHPRSIIGLLKAGYHGVLRSRDPTGSKVLIYRIAHWDPKVFTAYDVFRVSLITSELIVQEVETQRNGIKAIFDLEGWQFSHAFQITPSVAKKIAAVLTDSFPLKVRGIHLINEPVIFHAVFSMIKPFLTEKIKERIHMHGNNYKQSLLQHFPDILPLEYGGEEFSMEDICQEWTNFIMKSEDYLSSISESIQ”, “soluble”.
On to “MAEEQARHVKNGLECIRALKAEPIGSLAIEEAMAAWSEISDNPGQERATCREEKAGSSGLSKPCLSAIGSTEGGAPRIRGQGPGESDDDAETLGIPPRNLQASSTGLQCYYVYDHSGEAVKGIQDADSIMVQSGLDGDSTLSGGDNESENSDVDIGEPDTEGYAITDRGSAPISMGFRASDVETAEGGEIHELLRLQSRGNNFPKLGKTLNVPPPPDPGRASTSGTPIKKGHRREISLIWNGDRVFIDRWCNPMCSKVTLGTIRARCTCGECPRVCEQCRTDTGVDTRIWYHNLPEIPE”, for which the “soluble on expression in E. coli” value is “not soluble”.
